The chains are these.
B1: CE115HA000 V95A one-arm antibody (antibody, human IgG1, kappa, L234A L235A, N297A, name in Kabat numbering)
heavy: QVQLVESGGGVVQPGRSLRLSCAASGFTFSNAWMHWVRQAPGKGLEWVAQIKAKSNNYATYYAESVKGRFTISRDDSKNSLYLQMNSLKTEDTAVYYCRYAHYGAYYGVDAWGQGTTVTVSSASTKGPSVFPLAPSSKSTSGGTAALGCLVKDYFPEPVTVSWNSGALTSGVHTFPAVLQSSGLYSLSSVVTVPSSSLGTQTYICNVNHKPSNTKVDKKVEPKSCDKTHTCPPCPAPEAAGGPSVFLFPPKPKDTLMISRTPEVTCVVVDVSHEDPEVKFNWYVDGVEVHNAKTKPREEQYASTYRVVSVLTVLHQDWLNGKEYKCKVSNKALPAPIEKTISKAKGQPREPQVYTLPPSRCELTKNQVSLSCAVKGFYPSDIAVEWESNGQPENNYKTTPPVLDSDGSFFLVSKLTVDKSRWQQGNVFSCSVMHEALHNHYTQKSLSLSPDYKDDDDK
chain: EPKSSDKTHTCPPCPAPELLGGPSVFLFPPKPKDTLMISRTPEVTCVVVDVSHEDPEVKFNWYVDGVEVHNAKTKPREEQYNSTYRVVSVLTVLHQDWLNGKEYKCKVSNKALPAPIEKTISKAKGQPREPQVCTLPPSRDELTKNQVSLWCLVKGFYPSDIAVEWESNGQPENNYKTTPPVLDSDGSFFLYSKLTVDKSRWQQGNVFSCSVMHEALHNRYTQKSLSLSP
light: DIVMTQSPLSLPVTPGEPASISCRSSQSLVHSNRNTYLHWYQQKPGQAPRLLIYKVSNRFSGVPDRFSGSGSGTDFTLKISRVEAEDVGVYYCGQGTQVPYTFGQGTKLEIKRTVAAPSVFIFPPSDEQLKSGTASVVCLLNNFYPREAKVQWKVDNALQSGNSQESVTEQDSKDSTYSLSSTLTLSKADYEKHKVYACEVTHQGLSSPVTKSFNRGEC
B2: CE115HA000 V95D one-arm antibody (antibody, human IgG1, kappa, L234A L235A, N297A, name in Kabat numbering)
heavy: QVQLVESGGGVVQPGRSLRLSCAASGFTFSNAWMHWVRQAPGKGLEWVAQIKAKSNNYATYYAESVKGRFTISRDDSKNSLYLQMNSLKTEDTAVYYCRYDHYGAYYGVDAWGQGTTVTVSSASTKGPSVFPLAPSSKSTSGGTAALGCLVKDYFPEPVTVSWNSGALTSGVHTFPAVLQSSGLYSLSSVVTVPSSSLGTQTYICNVNHKPSNTKVDKKVEPKSCDKTHTCPPCPAPEAAGGPSVFLFPPKPKDTLMISRTPEVTCVVVDVSHEDPEVKFNWYVDGVEVHNAKTKPREEQYASTYRVVSVLTVLHQDWLNGKEYKCKVSNKALPAPIEKTISKAKGQPREPQVYTLPPSRCELTKNQVSLSCAVKGFYPSDIAVEWESNGQPENNYKTTPPVLDSDGSFFLVSKLTVDKSRWQQGNVFSCSVMHEALHNHYTQKSLSLSPDYKDDDDK
chain: EPKSSDKTHTCPPCPAPELLGGPSVFLFPPKPKDTLMISRTPEVTCVVVDVSHEDPEVKFNWYVDGVEVHNAKTKPREEQYNSTYRVVSVLTVLHQDWLNGKEYKCKVSNKALPAPIEKTISKAKGQPREPQVCTLPPSRDELTKNQVSLWCLVKGFYPSDIAVEWESNGQPENNYKTTPPVLDSDGSFFLYSKLTVDKSRWQQGNVFSCSVMHEALHNRYTQKSLSLSP
light: DIVMTQSPLSLPVTPGEPASISCRSSQSLVHSNRNTYLHWYQQKPGQAPRLLIYKVSNRFSGVPDRFSGSGSGTDFTLKISRVEAEDVGVYYCGQGTQVPYTFGQGTKLEIKRTVAAPSVFIFPPSDEQLKSGTASVVCLLNNFYPREAKVQWKVDNALQSGNSQESVTEQDSKDSTYSLSSTLTLSKADYEKHKVYACEVTHQGLSSPVTKSFNRGEC
B3: CE115HA000 V95E one-arm antibody (antibody, human IgG1, kappa, L234A L235A, N297A, name in Kabat numbering)
heavy: QVQLVESGGGVVQPGRSLRLSCAASGFTFSNAWMHWVRQAPGKGLEWVAQIKAKSNNYATYYAESVKGRFTISRDDSKNSLYLQMNSLKTEDTAVYYCRYEHYGAYYGVDAWGQGTTVTVSSASTKGPSVFPLAPSSKSTSGGTAALGCLVKDYFPEPVTVSWNSGALTSGVHTFPAVLQSSGLYSLSSVVTVPSSSLGTQTYICNVNHKPSNTKVDKKVEPKSCDKTHTCPPCPAPEAAGGPSVFLFPPKPKDTLMISRTPEVTCVVVDVSHEDPEVKFNWYVDGVEVHNAKTKPREEQYASTYRVVSVLTVLHQDWLNGKEYKCKVSNKALPAPIEKTISKAKGQPREPQVYTLPPSRCELTKNQVSLSCAVKGFYPSDIAVEWESNGQPENNYKTTPPVLDSDGSFFLVSKLTVDKSRWQQGNVFSCSVMHEALHNHYTQKSLSLSPDYKDDDDK
chain: EPKSSDKTHTCPPCPAPELLGGPSVFLFPPKPKDTLMISRTPEVTCVVVDVSHEDPEVKFNWYVDGVEVHNAKTKPREEQYNSTYRVVSVLTVLHQDWLNGKEYKCKVSNKALPAPIEKTISKAKGQPREPQVCTLPPSRDELTKNQVSLWCLVKGFYPSDIAVEWESNGQPENNYKTTPPVLDSDGSFFLYSKLTVDKSRWQQGNVFSCSVMHEALHNRYTQKSLSLSP
light: DIVMTQSPLSLPVTPGEPASISCRSSQSLVHSNRNTYLHWYQQKPGQAPRLLIYKVSNRFSGVPDRFSGSGSGTDFTLKISRVEAEDVGVYYCGQGTQVPYTFGQGTKLEIKRTVAAPSVFIFPPSDEQLKSGTASVVCLLNNFYPREAKVQWKVDNALQSGNSQESVTEQDSKDSTYSLSSTLTLSKADYEKHKVYACEVTHQGLSSPVTKSFNRGEC
B4: CE115HA000 V95G one-arm antibody (antibody, human IgG1, kappa, L234A L235A, N297A, name in Kabat numbering)
heavy: QVQLVESGGGVVQPGRSLRLSCAASGFTFSNAWMHWVRQAPGKGLEWVAQIKAKSNNYATYYAESVKGRFTISRDDSKNSLYLQMNSLKTEDTAVYYCRYGHYGAYYGVDAWGQGTTVTVSSASTKGPSVFPLAPSSKSTSGGTAALGCLVKDYFPEPVTVSWNSGALTSGVHTFPAVLQSSGLYSLSSVVTVPSSSLGTQTYICNVNHKPSNTKVDKKVEPKSCDKTHTCPPCPAPEAAGGPSVFLFPPKPKDTLMISRTPEVTCVVVDVSHEDPEVKFNWYVDGVEVHNAKTKPREEQYASTYRVVSVLTVLHQDWLNGKEYKCKVSNKALPAPIEKTISKAKGQPREPQVYTLPPSRCELTKNQVSLSCAVKGFYPSDIAVEWESNGQPENNYKTTPPVLDSDGSFFLVSKLTVDKSRWQQGNVFSCSVMHEALHNHYTQKSLSLSPDYKDDDDK
chain: EPKSSDKTHTCPPCPAPELLGGPSVFLFPPKPKDTLMISRTPEVTCVVVDVSHEDPEVKFNWYVDGVEVHNAKTKPREEQYNSTYRVVSVLTVLHQDWLNGKEYKCKVSNKALPAPIEKTISKAKGQPREPQVCTLPPSRDELTKNQVSLWCLVKGFYPSDIAVEWESNGQPENNYKTTPPVLDSDGSFFLYSKLTVDKSRWQQGNVFSCSVMHEALHNRYTQKSLSLSP
light: DIVMTQSPLSLPVTPGEPASISCRSSQSLVHSNRNTYLHWYQQKPGQAPRLLIYKVSNRFSGVPDRFSGSGSGTDFTLKISRVEAEDVGVYYCGQGTQVPYTFGQGTKLEIKRTVAAPSVFIFPPSDEQLKSGTASVVCLLNNFYPREAKVQWKVDNALQSGNSQESVTEQDSKDSTYSLSSTLTLSKADYEKHKVYACEVTHQGLSSPVTKSFNRGEC

Experimental findings from patent US20210388087A1 (Chugai, published 2021) are described below.

The target in this test is T1, CD3 epsilon homodimer protein (UniProt P07766 23-126).
T1 construct: immobilized on Sensor chip CM4 by amine coupling; also called CD3 (CD3 epsilon)
T1 sequence (P07766 23-126): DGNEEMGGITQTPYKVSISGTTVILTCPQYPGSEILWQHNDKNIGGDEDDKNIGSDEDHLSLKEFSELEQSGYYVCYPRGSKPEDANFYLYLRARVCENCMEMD
Briefly: SPR (Biacore T200), CD3 epsilon homodimer on CM4 chip, one-arm antibody as analyte, 25 C.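 Note: homodimer attached to the sensor surface via amine coupling, HBS-EP+ used as running buffer during binding runs.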
In the case of B1, the “ratio of amounts bound (altered form / CE115HA000)” value came out at 0.11.
With B2, the “ratio of amounts bound (altered form / CE115HA000)” value was found to be 0.24.
The figure for B3 is 0.24; for B4 it is 0.19.
